Data taken from publication PMC8219737, “Direct activation of the proton channel by albumin leads to human sperm capacitation and sustained release of inflammatory mediators by neutrophils” (Nature Communications, 2021).

Target: the molecule itself
Experiment: smTIRF single-molecule photobleaching (subunit counting); hHv1-G199L-TFP particles at the surface of live HEK293T cells; bleaching steps of TFP counted

B1: hHv1-G199L-TFP (natural protein, human, UniProt Q96D96-1 1-273, looked up)
chain: MATWDEKAVTRRAKVAPAERMSKFLRHFTVVGDDYHAWNINYKKWENEEEEEEEEQPPPTPVSGEEGRAAAPDVAPAPGPAPRAPLDFRGMLRKLFSSHRFQVIIICLVVLDALLVLAELILDLKIIQPDKNNYAAMVFHYMSITILVFFMMEIIFKLFVFRLEFFHHKFEILDAVVVVVSFILDIVLLFQEHQFEALLLLILLRLWRVARIINGIIISVKTRSERQLLRLKQMNVQLAAKIQHLEFSCSEKEQEIERLNKLLRQHGLLGEVN
notes: also used for the patch-clamp (functional) rows of hHv1-G199L; source: HEK293T, transfected, on live cells; not shown: teal fluorescent protein (TFP, via a 13-residue linker), C-terminal, kept
  stoichiometry N: 2 subunits per particle
